Experiment [1] addresses HIV-1 CA A14C/E45C/W184A/M185A (HIV-1 (NL4-3)). Nature of the experiment: SEC.
Experiment [2] shares this target. Nature of the experiment: cross-linking.

For the substance “HIV-1 CA A14C/E45C/W184A/M185A (natural protein)”, the stoichiometry N in experiment [1] and in experiment [2] was 6 throughout.

(Values after PMC2840706.)
